Measured values: patent publication US10487318

How the values were obtained:
[1] = molecular target: T1, 33mer peptide (LQLQPFPQPQLPYPQPQLPYPQPQLPYPQPQPF)
T1 chain: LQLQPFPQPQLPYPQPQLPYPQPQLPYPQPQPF

[2] = molecular target: T2, Glia_56-79 peptide (LQLQPFPQPQLPYPQPQLPY)
T2 chain: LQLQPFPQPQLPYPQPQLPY

[3] = molecular target: T3, α9-gliadin peptide (QLQPFPQPQLPY)
T3 chain: QLQPFPQPQLPY

[4] = molecular target: T4, γ-gliadin peptide (IQPQQPAQL)
T4 chain: IQPQQPAQL

[5] = molecular target: T5, α2-gliadin peptide (PQPQLPYSQPQPFR)
T5 chain: PQPQLPYSQPQPFR

[6] = molecular target: T6, fluorescent analogue of gliadin, hexapeptide QPQLPY conjugated to a fluorophore and a quencher
T6 chain: QPQLPY

B1: Homologue 14 (NCBI YP_001861188) (protein)
chain: HMTKHPLPGSERVLAPGSKVVAQCDPSETIEVVVVLRRKNEQQFAQMMKTIEAGAAGARPLTREELEQRFGALPEDIAKLKAFAAQHGLSVVREDASARTVVLSGRIEQFQQAFDVQLQHYEHQSMGRFRGRTGAISVPDELHGVVTAVLGLDDRPQARPHFRIRPPFQPARAQSASSFTPLQLASLYRFPQGDGSGQCIGIVELGGGYRTADLDSYFSSLGVGSPKVVAVGVDQSGNQPTGDPNGPDGEVTLDIEIAGALAPAATIAVYFTTNSDAGFIDAVSQAVHDRTNQPSVISISWGAPESMWTAQSMKALNDVLQSAAAIGVTVCAASGDSGSSDGVGDGRDHVDFPASSPYVLACGGTSLQGSGRTVAHEVVWNDGSNGGATGGGVSGAFPVPAWQEGLSTSAAQGGQRALTGRGVPDVAGDASPLTGYDVIVDGNNTVIGGTSAVAPLWAALIARINGAKGAPVGFVNPKLYKASACNDITQGNNGSYAATTGWDACTGLGSPDGVKVAAAL
Degradation pattern of 33mer (60 min) [1]: WT-like - minor

B2: Homologue 17 (NCBI YP_004216463) (protein)
chain: MAATPRFASQPRVTLPGSQKHPLTTDTEVPPPAPVKAAATKLSATPFTVTVIVKRKNPLNLKQVLKPAGRLTHAAFAKAHGPSPDGVKLVKAFAKEFGLTVAPAPGQGRRALYLTGTAAAMQTAFGVTFATKIMEGTKYRVREGDICLPKELIGHVDAVLGLDNRPQAKPHFRHHKPAATSVSYTPVQVGQLYGFPSGAKATGQTIGLIELGGGFRAADITAYFKTLGQTAPKVTAVLVDKAKNTPTTSSSADGEVMLDIEVAAAVAPGANIAVYFAPNTDQGFIDAISQAVHDTVNKPSVISISWGGPESTWTAQSLAALDAACQSAAALGITITVAAGDDGSTDGVKGTVNHVDFPASSPHVLGCGGTKLLGSGTTITSEVVWNELTANEGATGGGVSNVFPLPTWQAKSNVPKPTVAAGGRGVPDVSGNADPSTGYTVRVDGSTFPIGGTSAVAPLWAGLIALCNAQNKTTAGFINPALYAAAAAKSFRDITSGNNGGFKAGPGWDACTGLGSPIGTAIAKTLAPATKSTSKTAVKNAPEIRFRPHKKAPTKTAAKTPALRRLK
Degradation pattern of 33mer (60 min) [1]: WT-like - minor

B3: Homologue 16 (NCBI YP_003387700) (protein)
chain: MSAFDQLVPLPGSEKTVPDAAPSQTLDPNEVLTVTIRIRRKRTLASLVSTTAPVTEVVSRSEYASRFGADPAIVKQVEAFASAYDLSLVEQSLARRSVLLRGTVAQMEQAFGVSLANYQLADGTVFRGRTGVVNVPSELVEHIEGVFGLDNRPQARAHFQVYKPEKGTKVAPRAGGISYTPPQLARLYNFPTGVTGKGQCIAIIELGGGFRTADIKTYFGGLGLKPPTVVAVSVDGGHNAPSTADSADGEVMLDIDVAGGVAPGAKIVVYFAPNTDQGFLDAITTAMHDTKNKPSVISISWGAAESNWTPQALTSFNQAFQAAAALGITVCAAAGDTGSDDSVGDGKAHVDFPASSPFVLACGGTKLTATDNVIASEVVWHESKTSATGGGVSDVFDLPDYQQKSHVPPSVNDKTRIGRGVPDVAAVADPVTGYAVRVDGSNLVFGGTSAVAPLMAGLIALINQQRGKAVGFIHPLIYANPSAFRDITQGNNTTTTGNKGYAATTGWDACTGLGVADGKKLASVLTATPVA
Degradation pattern of 33mer (60 min) [1]: WT-like

B4: Homologue 19 (NCBI YP_005056054) (protein)
chain: MPTSSRFASQSRVPLPGSERKPFVPAGAPKAAKTPKVSTAVKTVPATGRIRVSLIVPPKQPLDTKRLGKLDARLSRAQFAARHGADPASVRLVKAFAKEFGLTVEPITQPGRCTVQLSGTCAAMRKAFAISLVEHTTEQGKFRLREGEISLPAELEGHVLAVLGLDNRPQAKPHFRIAKPRATNVSYTPVQVAQMYGFPAGATATGQTIGIIELGGGYRAADLTAYFKTLGLPAPTVTAVPIDGGKNTPGNANGADGEVMLDIEVCAAVAQGAKIAVYFTTNTDQGFIDAITTAVHDSTNKPSVISISWGGPESSWTEQSMTALDAACQAAAAVGVTITVAAGDNGSSDGASGDNVDFPASSPHVLACGGTKLVGSGSTITSEVVWDETSNDEGATGGGVSTVFALPTWQKNANVPSPTTSAGGRGVPDVSGDADPSTGYTIRVDSETTVIGGTSAVAPLWAGLIALANAQNKVAAGFVNPALYAAGAKKAFRDITQGNNGSFSAGPGWDACTGLGSPVGNLVIQAVAPKSTTTKKAKKGKTK
Degradation pattern of 33mer (60 min) [1]: WT-like - minor

B5: Homologue 15 (NCBI YP_002754884) (protein)
chain: MSPIASRRSALPLSERPAPENARALAAVEPDRTMTVSVLVRRKKPLVLADLEGKKLTHREFERRYGASEKDFATIAKFAAGHGLAVDHHASSLARRTVVLRGTARQMQQAFGVTLHDYEDSETQQRYHSFTGAITVPAAHARIIESVLGLDARPIAKPHFRVRKRSAAATGAVSFNPPQVASLYSFPTGVDGSGETIGILELGGGYETSDIQQYFSGLGIQPPTVVAVSVDGAVNAPGNPNGADGEVALDIQVAGSIAPGAKLAVYFAPNTEQGFVDAITTAVHDTANKPSVLSISWGGPESSWPQAAAQSLNNACESAAALGVTITVASGDNGSTDGVQDGQNHVDFPASSPYVLACGGTYLAAVNNGVPQESVWDDLASGGGATGGGVSALFPLPAWQTGANVPGGSMRGVPDVAGDASPESGYNVLVDGQPQVVGGTSAVAPLWAALIALVNQQKGEAAGFVNAALYQNPSAFHDITQGSNGAYAAAPGWDPCTGLGSPMGTAIAKILA
Degradation pattern of 33mer (60 min) [1]: WT-like

B6: Homologue 5 (NCBI ZP_09078202) (protein)
chain: AGRTSYTPLEVAALYNFPSIHCKDQCIGILELGGGYRPADLQTYFNGLGIPQPNITDVSVGGAANRPTGDPNGPDGEVVLDIEVAAAVTPGAKIAVYFADNSDDGFLNAITTAIHDTRNKPSVISISWGKAEIGWTPQAINAMNQAFRDAAALGVTICCASGDDGSTDRVQDGRYHVDFPASSPYVLACGGTRLESSGSTITQEVVWNEGALGGGATGGGVSDVFDRPNWQANANVPTSANPERRIGRGVPDWAGNADPATGYQILVDGTRAVIGGTSAVAPLFAGLIAIINQKLGHSVGFINPILYNLSAQHNVFHDITSGNNDMSGQNGPYEAQPGWDACTGLGSPDGTKLMNAISEAHRLVSVG
grade and % of peptide after an 80-min incubation [2]: ++; 0.4% | grade and % of peptide after an 80-min incubation [3]: ++/-; 34%; | grade and % of peptide after an 80-min incubation [4]: ++/-; 40% | grade and % of peptide after an 80-min incubation [5]: ++ (undetect)

B7: Homologue 6 (NCBI YP_003109679) (protein)
chain: MAPEERRTLPGSAMPRPAGAQVLGQIPDDERVEVTVVLQPRAPLPEPGPTPMSRAELADLRSPPEGALEAIARYVAGQGLEVIAADAPRRRIVLAGSAARIAALFGISFVRLQLEGRRYRTYEGEISLPAELAPLVVAVLGLDTRPFARSHRRPAVAPNAPTTAPTVARAYDFPTAYDGRGTTIGFIELGGGFQESDLVRYCEGLGLSTPQVSVVGVDGARNAPTGDPNGPDAEVMLDLEVATGVANGADLVLYMAANTDAAFYSAIATALRDATHAPVAISISWGAPEESYPATTIAAFESVLEEAVHVGVTVLVAAGDQGSTDGVDDGRAHVDYPAASPYVLACGGTRLDLDGTTIVAETVWNDLPNGGATGGGISALFPVPSWQAGIAMPPSANPGAGPGRGVPDVAGNADPDTGYRIVVDGVATVVGGTSAVAPLWAGLVARCHQAGARGGFWNPLLYAARGSSAFHEITVGSNGAYDAGPIWNACCGLGSPNGTAILQTLRA
grade and % of peptide after an 80-min incubation [2]: -; 85% | rate of degradation of the fluorescent hexapeptide, pH 4 [6]: no activity was seen for this homologue in the fluorescent experiment conducted at pH 4 | grade and % of peptide after an 80-min incubation [3]: -; 114% | grade and % of peptide after an 80-min incubation [4]: -; 102% | grade and % of peptide after an 80-min incubation [5]: -; 87%
